Experimental data reported in publication PMC6009700.
Where two headings read alike, the source gives them in different places.

How the values were obtained:
[1] = molecular target: T1, TubR (Clostridium botulinum prophage c-st, UniProt Q331T6 1-81); assay: EMSA
T1 sequence: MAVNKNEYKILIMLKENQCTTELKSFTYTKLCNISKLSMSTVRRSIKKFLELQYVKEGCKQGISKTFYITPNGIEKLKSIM

[2] = molecular target: T1, TubR; assay: EMSA; remark: listed apart in the source
[3] = molecular target: T1, TubR; assay: fluorescence anisotropy
[4] = molecular target: T1, TubR; assay: fluorescence anisotropy; remark: listed apart in the source

B1: Shuffle DNA (dsDNA)
DNA 1: AATCGTAAAATATTACAATATAAGGTAACAAGATATTCCTTTTTGGAGCAT
DNA 2: ATGCTCCAAAAAGGAATATCTTGTTACCTTATATTGTAATATTTTACGATT
binding result [1]: no binding

B2: CP1 (dsDNA)
DNA 1: TATAGTAAAGAAAGAAATAAACATGATATGAACATATATTGACTACAGTTTGACATAGTTTTGACTATGATATGAACAAAATAAGAATGTATTA
DNA 2: TAATACATTCTTATTTTGTTCATATCATAGTCAAAACTATGTCAAACTGTAGTCAATATATGTTCATATCATGTTTATTTCTTTCTTTACTATA
binding result [2]: binds

B3: SF2 (dsDNA)
DNA 1: AGAATATACTTTGAATATAATTAGACTTAAACAAGATTACTTTTAGACTATAGTATAAATATAATTAGAAAATAATTTGAATAATTTATGAAAATAAGTACACATTTTCTAAGGAATATAGTATAATATAGTAAAGAAAGA
DNA 2: TCTTTCTTTACTATATTATACTATATTCCTTAGAAAATGTGTACTTATTTTCATAAATTATTCAAATTATTTTCTAATTATATTTATACTATAGTCTAAAAGTAATCTTGTTTAAGTCTAATTATATTCAAAGTATATTCT
binding result [1]: binds

B4: SF1b (dsDNA)
DNA 1: AAATAAACATGATATGAACATATATTGACTACAGTTTGACATAGTTTTGAC
DNA 2: GTCAAAACTATGTCAAACTGTAGTCAATATATGTTCATATCATGTTTATTT
apparent K (half saturation) [3]: 184 ± 4.04 nM

B5: SF1 (dsDNA)
DNA 1: TAAGGAATATAGTATAATATAGTAAAGAAAGAAATAAACATGATATGAACATATATTGACTACAGTTTGACATAGTTTTGACTATGATATGAACAAAATAAGAATGTATTATGAATATTTTCTTACATTACTGCGACTACTATCAG
DNA 2: CTGATAGTAGTCGCAGTAATGTAAGAAAATATTCATAATACATTCTTATTTTGTTCATATCATAGTCAAAACTATGTCAAACTGTAGTCAATATATGTTCATATCATGTTTATTTCTTTCTTTACTATATTATACTATATTCCTTA
binding result [1]: binds

B6: SF3b (dsDNA)
DNA 1: TGAACATATAGTGAACATAATACAACTAGTACAAGAATGTAGTTTGACTAT
DNA 2: ATAGTCAAACTACATTCTTGTACTAGTTGTATTATGTTCACTATATGTTCA
apparent K (half saturation) [4]: 138 ± 7.7 nM

B7: SF3 (dsDNA)
DNA 1: GTTAATTGTAGCGTTAAGTGAGACATAGAATTGAACATATAGTGAACATAATACAACTAGTACAAGAATGTAGTTTGACTATAATTTGAACATATTTAGAATATACTTTGAATATAATTAGACTTAAACAAG
DNA 2: CTTGTTTAAGTCTAATTATATTCAAAGTATATTCTAAATATGTTCAAATTATAGTCAAACTACATTCTTGTACTAGTTGTATTATGTTCACTATATGTTCAATTCTATGTCTCACTTAACGCTACAATTAAC
binding result [1]: binds
